By Kd is commonly meant the equilibrium constant for the complex coming apart.

The source of these data is paper PMC10741561.

In assay [1] the target is m4 + m5 (ternary SNARE complex with His-SNAP23 and GST-VAMP2). In words: in vitro SNARE complex assembly assay (SDS-PAGE, anti-Sx4 immunoblot, ImageJ quantification). The following applies: 5 µM Sx4-GST variant with equimolar GST-VAMP2 and His-SNAP23, 4 °C, 20 min; parent: est. 1.0; read off a plot. Background: In western blotting, separated proteins are transferred to a membrane and probed.

In assay [2] the target is Phos-Sx4-GST (C-terminally GST-tagged Sx4 cytosolic domain harbouring two mutations Y115E and Y251E) (UniProt P70452). The assay can be described thus: ITC; MicroCal VP-ITC; syntaxins (WT-Sx4 298 µM, Phos-Sx4 308.25 µM) titrated with SNAP23 (64 µM); nonlinear least squares fit. For orientation: Isothermal titration calorimetry measures the heat released or taken up as one component is titrated into another.

Assay [3] concerns the target WT-Sx4-GST (C-terminally GST-tagged Syntaxin 4 cytosolic domain) (UniProt P70452). The description is as above.

For the substance “WT-Sx4-GST (C-terminally GST-tagged Syntaxin 4 cytosolic domain) (from UniProt P70452) L173A; E174A”, in assay [1], the ratio to parent came to 1.5.
As to “His-SNAP23 (N-terminally His-tagged SNAP23) (from UniProt O09044 1-210) (natural protein)”, the dissociation constant Kd in assay [2] stood at 1.22 µM; in assay [3], 5.6 µM.
